Test: soluble on expression in E. coli; label from the status in PepcDB or PDB records

Row | Sequence | soluble on expression in E. coli
1 | MGSDKIHHHHHHMRRPRRPQDFLEYEKVLKFKESEKQIEETETKGDVRVALVVPSGYEVAASGLAFHYVQKLLNSHPRIRCERFFYDETFKKFYSLETQTPIDEFPIWLFSVSFENDFSNLLDILKKKDVPLSWKEREDYHPLIIIGGAVTYLNEEFLIPVADAVYYGELEKYLDLFTEALTGETKQEILSSLSRIPSVEVPSLKEHSEIATGVDLNDFLPHSSVVPSRGVFPGKLLVEVGRGCIRRCAFCIFGKNLKPARFVKPERFEELVKNTPYSEYGLISATITDYPWLEDLLDTVEKYQLKISVSSLRLDRLSERLLRTLKDSGQRSFTIAPEAGSQRIRDILKKDITDEQIENALKLARKLDFDRVKMYFIYGLEEETEEDLEAFKKLGDLAVRLGYREVHMSFNPLIPKPGTEFERRKMEPVDVLRKKEKILKNLLKGFRVDFESIRESVVQYTIAHAGKEEVESWLKFFEKSDKKLLGKLIYEEGRKRLC | not soluble
2 | SVISESMDILFRIRGGLDLAFQLATPNEIFLKKALKHVLSDLSTKLSSNALVFRICHSSVYIWPSSDINTIPGELTDASACKTILRFIQFEPEEDIKRKFMRKKDKKLSDMHQIVNIDLMLEMSTSLAAVTPIIERESGGHHYVNMTLPVDAVISVAPEETWGKVRKLLVDAIHNQLTDMEKCILKYMKGTSIVVPEPLHFLLPGKKNLVTISYPSGIPDGQLQAYRKELHDLFNLPHDRPYFKRSNAYHFPDEPYKDGYIRNPHTYLNPPNMETGMIYVVQGIYGYHHYMQDRIDDNGWGCAYRSLQTICSWFKHQGYTERSIPTHREIQQALVDAGDKPATFVGSRQWIGSIEVQLVLNQLIGITSKILFVSQGSEIASQGRELANHFQSEGTPVMIGGGVLAHTILGVAWNEITGQIKFLILDPHYTGAEDLQVILEKGWCGWKGPDFWNKDAYYNLCLPQRPNMI | not soluble
3 | MGSDKIHHHHHHENLYFQGMFRPQDDFTYLMPVHFGGGKFDPETLVTQKATALSLSFETERDLLENYIPEGFELLAPEVQVAFNKFTEINWLHGGQYNLINVAAPVRFHGKKDELDGAYTLVVWENKTAPILGGREQTGIPKIYADIEDLHIVRPHFATTVSYEGNTFLNMDFEATGSITGRDLDALKSQFLTMNTLGWRYIPKVGAPGAELSQFVLYPQGMEVETAEVGKGSLKWTELTPMQSPAQYYIVNSLASLPIKRVTQAVLVEGRAILRAMGARVIE | soluble
4 | MGSDKIHHHHHHMGLRILQVMAGAEQGGAELFFERLCIALHRAGLHQHVVMREASVRLARMREAGLRPVLLPFGGRFDFKTGRALRQEIARFQPAVVLSWMNRATRFVRPGNHVFCARLGGYYDLKYYRGCDWLVCNTEDIRDYVIKQGFPAERAVHLPNFVPQQHMAPTARKLLYTPENAPLVLALGRLHENKAFDVLLRALALVPDVYLWLAGEGPLRASLETLAQDLGVKPRVRFLGWRDDTPALYAAADLVVFPSRHEPLGNVVLEAWAQRTPMVSTRTDGPARLITSGHNGLLVPIDDHRAMAGAIRQAFGEPGLGEAMARAGWDSYLAAYTEEKVVASYRSFFETIVAERSGAVDRG | not soluble
5 | HLPETIYVIRKGDMVIRPKYDEYQQTNGTEIIRFDQTRKESPFKVQRIIERSCKFYGNNYISKKAETNRITGISSKPPILLTPLFPTYFFPTHSDRQEENIWINMHYIENVKELKNRKSKIIFANGDSLTLNVSFHSLWHQYTNAIIYYYMVDKQSRMKSNNPEQPIDYNQSSLNIFEALSRYSLFEEN | not soluble
6 | MGSDKIHHHHHHVPATYPLSSCIEWQFAEAGDLAARVRAAKADGFDLVEFHLWRDKPVEAIGAALADTGVALTGVCVDPRRSIVDPAERAEMVEAVRETIAATAPLGKPPLIVASGFRVEGMSEEDHFANAVAALKQAAALAEDAGVTLLLEPLNTRLFSAMYLVSTTLGLDLVEAVGSPNLRLLYDVWHSAVMGEDIADVLAGRIGLVAHVQVADMEDRNEPGTGTVDWAHVMNTLKSLGYQGSIGMEYFPTLPMDQSLKLTRETLAL | not soluble
7 | MVKGPGLYTEIGKKARDLLYKDHNSDQKFSITTFSPAGVAITSTGTKKGDLLLGDVAFQSRRKNITTDLKVCTDSTFLITATVDEAAPGLRSIFSFKVPDQNSGKVELQYLHEYAGISTSMGLTQNPTVNFSGVIGSNVLAVGTDVSFDTKSGNFTKINAGLSFTKEDLIASLTVNDKGDLLNASYYHIVNPLFNTAVGAEVSHKLSSKDSTITVGTQHSLDPLTSVKARVNSAGIASALIQHEWKPKSFFTISGEVDTKSIDKSAKVGLALALKP | soluble
8 | MGSDKIHHHHHHMASMFNRVPPLHLLVAFEAAARLGSFARAAEELSVTPSAVSHRIKNLEELWGEDLFVRSNAALRLTAAGTRYLRNVQDALKSLNELARPEYNKMRTRLRVAIPPTFGRQHLVPRLPEFGALYPHIDIELHLAIPFLDVKAEDTDVEIRYGTGRYPDLKTTKLLVEPVFPACGREYYERVNGRAITKPEHLHGLVLLRSPLEPWKPWFETAGLDWPEPQTGPQLNDIGLMLEAVASNQGVALVRQRMARHWLSLGQMVRLLDIESVSPHGYYIVEREQAPLKPEARYFVDWLLSLDW | not soluble
9 | MGSDKIHHHHHHMTQSHDEPMQTMMWGGNAAFIEGLYESYLQDPSSVGAEWRSYFDGLRGGAQERVHSEVQQRFYELGQHRGPVTVQVTGGASGAQQAAGALVTAYRVYGHISARNNPLKLRGVPTVPELTPEFYGLSEADLSEQVQDSPFSGTLRDVIAQLQDTYCGAIGFEYNYLPANERAWFQERIEKGRGQGRYGLSQDERRRLMQKLNAAEGLELYLKNRYPGVKRFGLEGGESFIPLMDRIIQQAGGRYGVKEVVVGMAHRGRLNTLVNIFGKPSGTLFDEFDGKKKLSDDPDIAGDVKYHMGYSSDVRTPGGPMHLAMAFNPSHLEIVSPVVHGSVRARQDRRGDTERKQVLPITVHGDAAVSGQGVVMETLNFSRLRGFTTGGAIRIVINNQIGFTISDPRDSRSSRYCTDVAKIANAPVMHVNGDDPEAVAFCGDLALAYRQEFGKDVFIDLICFRRNGHNEGDEPRMTQPVMYREIDQHPGTRALYAAQLEKDGVLAAGEGDKLVNDFRDRLDRGETVVEEMENAEQSKLAVDWSGYTNTHWKDDEVATAVPREKLEALGLKLTQVPEGFRVHRTVERTVIKAREAMARGEQPLDWGMGEMLAYASLLDEGFGLRLDGQDSGRGTFVHRHAVLHNQDAVDPLSEEYMALAHLSPEQGRVEVIDSTLSEEAVLAFEYGYSTSEPKALVAWEAQFGDFANGAQAVVDQFLSAGESKWQRLSGLTMLLPHGYEGAGPEHSSARLERYLQLCAQKNMQVVVPSSAAQIFHLLRRQVLRPYRKPLIVMTPKSLLRNKHAMSPLSDLYDGVFHEVIGDAEVQNARRVVLSSGKLHWELTEAREKDKEGYAGTALVRLEQLYPFPAEQVKAELAKHPGAQVVWAQEEPENQGAWLMIWEDLEHCLQPGQTLTHASRPRSASTAVGYTSVHVREQAKVIADALGEPITRQDVDAQVPLTEEASAQG | not soluble
10 | GEHTTCGCGEHCGCNPCACGREGTPSGRANRRANCSCGAACNCASCGSATAPG | soluble
11 | MGSDKIHHHHHHMTEQVTRRDVLGTGASVLGSLAIGSTTASGALQTDGTTVTFLHDTHVHGRFANASAGELSVARYFGLMNEITEDADTTLRVGNGDDLASSVLSAVFDGRHVVSTFNAGGLDFDTFGNHDFDMGPEVLRERVSDSLFTWVSANVREDGSVFAAEQGAQQYVLTDVGDVTLGVTGLITPEAPEVTSIGENTDVLAPASALQNVTERMRADGADAVIVLSHLASETARTVAEEVDGVDAIIGDHAASLLEEPEVINDTVLSFVGDEYEYLGELALGIDGSGVTDHEFVLHNVGESSAGTDPFVSLVQDHYETQLERQLDVVIGETTQPLDTRQSVVRARESNMGNFVADTIRTDVEADTALMNGGGIRTDRLYFEDASEDDPVAITRRVVVDILPFPNNVVELEVTGETLLAALENGVSRVEAGAGRFPQVSGITYTYDPTAESGDRIVDATAGGDPIDPDATYTLATNDFVSGGGDGYDMLSDATVLVSSNEGALLSDLIINTIEEQGTISPTTEGRITRQSEES | not soluble
12 | MKFYEEKIDSKRVFEGKMISVRVDRVRLPDGRESTREVVDHPGAVVIVPVLGGKILFVEQYRYPIEQVLLELPAGKLDPGESPEECAKRELEEETGYRAKKLSYLGKIFTTPGFTTEVIHIFAAEDLEKTSQNTDPDEFIEVKEVPIEEALSLLKNAEIEDSKTICALTRFFFAKGVIR | soluble

Reference: the DeepSol protein solubility set
